Source: patent US20180043006A1 (UNIVERSITY OF VIRGINIA PATENT FOUNDATION, published 2018)

B1: RV-A16 VP2P21 peptide epitope (peptide)
peptide: NEKQPSDDNWLNFDGTLLGN
notes: 20mer from the overlapping RV-A16 VP2 peptide library, loaded on HLA-DR tetramers
B2: RV-A16 VP1P23 peptide epitope (peptide)
peptide: PRFSLPFLSIASAYYMFYDG
notes: 20mer from the overlapping RV-A16 VP1 peptide library, loaded on HLA-DR tetramers
B3: RV-A39 VP2169-188 peptide epitope (peptide)
peptide: SDDNWLNFDGTLLGNLLIFP
notes: Residues 169-188 of RV-A39 VP2; also called RV-A39 VP2 peptide

Tests used:
[1] = target: T1, HLA-DR molecule DRB1*0101 (human); assay: peptide displayed on HLA-DR tetramer (TGEM)
T1 construct: Used as a PE-conjugated peptide/MHCII tetramer assembled by a cited method

[2] = target: T2, HLA-DR molecule DRB1*0401 (human); assay: peptide displayed on HLA-DR tetramer, ex vivo staining of PBMCs
T2 construct: Used as a PE-conjugated peptide/MHCII tetramer assembled by a cited method
Description: Biologically relevant pMHCII complexes were identified by tetramer-guided epitope mapping (TGEM). This involved 2 steps: First, PBMC cultures established from subjects with known HLA-DR types were stimulated with RV peptide pools derived from VP1, VP2, or VP4, and then stained with pMHCII tetramer pools composed of HLA-DR molecules corresponding to those expressed in the test subject; Second, positive signals were de-convoluted by repeating and staining with single-peptide tetramers.
All experiments were performed in subjects expressing HLA-DR molecules corresponding to the selected tetramer. Precursor frequencies of circulating tetramer+ cells were then calculated by established methods [43]. Tetramer+ cells were phenotyped for surface markers by staining PBMCs with PE-conjugated tetramers, labeling with anti-PE magnetic beads, enriching with an AutoMACS separator (Miltenyi Biotec, Auburn, Calif., USA), and then counterstaining for surface markers. […] For simplicity, identified RV-A16 peptide epitopes were given a numerical designation.

[3] = target: T3, HLA-DR molecule DRB1*0701 (human); assay: peptide displayed on HLA-DR tetramer (TGEM)
T3 construct: Used as a PE-conjugated peptide/MHCII tetramer assembled by a cited method

[4] = target: T2, HLA-DR molecule DRB1*0401; assay: peptide displayed on HLA-DR tetramer, ex vivo staining

Binder | binding result [1] | binding result [4] | further results
PHQFINLRSNNSATLIVPYV [RV-A16 VP2P24 peptide epitope] | binds | – | –
B1 | – | – | binding result [2]: binds
B2 | binds | – | binding result [3]: binds
B3 | – | binds | –
AQVRRKFEMFTYVRFDSEIT [RV-A39 VP1105-124 peptide epitope] | – | binds | –
